Measured values reported in paper PMC7667676.

Target: endogenous phosphorylated p38 (P-p38) (human (endogenous in Huh7.5.1)) (UniProt Q16539)
UniProt Q16539, sequence (Q16539 whole entry): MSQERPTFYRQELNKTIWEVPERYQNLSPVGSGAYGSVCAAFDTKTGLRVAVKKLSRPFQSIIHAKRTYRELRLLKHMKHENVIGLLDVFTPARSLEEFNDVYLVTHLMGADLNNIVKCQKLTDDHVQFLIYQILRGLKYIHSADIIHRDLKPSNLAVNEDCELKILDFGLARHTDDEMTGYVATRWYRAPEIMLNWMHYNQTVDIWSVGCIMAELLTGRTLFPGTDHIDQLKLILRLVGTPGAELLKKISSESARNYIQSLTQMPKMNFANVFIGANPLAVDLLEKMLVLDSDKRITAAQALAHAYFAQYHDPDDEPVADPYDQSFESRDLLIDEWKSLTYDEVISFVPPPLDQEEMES

Substance: HCV core protein N-terminal peptide (CN-peptide)
- reduction of intracellular HCV RNA (qRT-PCR) in JFH1-infected primary human hepatocytes incubated with the CN-peptide for 72 h; the pair blocked is p38α and the HCV core protein (m8 and m9): 91%
